Experimental data reported in the nanobody polyreactivity screen of Harvey et al. (2022).

Assay: yeast display, Sf9 membrane polyspecificity reagent, FACS + sequencing; frameworks hold sequencing errors
Summary of the method: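 Sorting gates, low and high (top ~1%), were placed on anti-HA fluorescence to track expression and on streptavidin fluorescence to track reagent binding. A clone's polyreactivity label is taken from the gate it came out of. The reagent was 10% biotinylated, detergent-solubilized Sf9 membrane, applied for 1 hour at 4 °C to galactose-induced yeast display cells.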
In the case of “QVQLVESGGGLVQAGGSLRLSCAPSGFIFARNAMGWYRQAPGKERELVAVISTRGRTYYADSVKGRFTISRDNAKNTVYLQMKRLKPEDTAVYYCNADKVIGYDYWGQGTQVTVSS”, the “polyreactivity (PSR sort gate)” value is reported as “high polyreactivity”.
For “QVQLVESGGGLLQAGGSLRLSCAASGRTFNKYAMGWYRKAPGIVRELVAAINYSGGRTYYADSVKGRFTISRDNAKNSVYLEMNSLKPEDTAVFYCAATPTFFVWQGYNYWGQGTQVTVSS”, the “polyreactivity (PSR sort gate)” value was “low polyreactivity”.
In the case of “QVQLVESGGGLVQAGGSLRLSCAASGSIITWYAMGWYRQAPGKERELVAAISNSDSSTYYADSVKGRFTISRDNAKNTVYLQMNILKPEDTAVYYCAAEYGLAWYNFEHWGQGTQVTVSS”, the “polyreactivity (PSR sort gate)” value is reported as “high polyreactivity”.
For “QVQLVESGGGLVQAGGSLRLSCAASGSTIVSYDMGWYRPAPGKDRELVAAITYDGDSTYYADSVKGRFTISRDNAKNTVYLQMNSLKPEDTAVYYCAAEPGDDLKFRGGFEYWGQGTQVTVSS”, the “polyreactivity (PSR sort gate)” value was “low polyreactivity”.
For “QVQLVESGGGLVQAGGSLRLSCAASGSTFTINAKGWYRQAPGKERELVAAISWSGGTTYYADSVKGRFTISRDNAKNTVYLQMTSLKPEDTAVYYCAARSYYGYDYWGQGTQVTVSS”, the “polyreactivity (PSR sort gate)” value was “high polyreactivity”.
With “QVHLVESGGGLVKAGGSLRLSCAASGLTFYVYTMGWYRQAPGKERELVAVISSGDSTYYADSVKGRFTISRDNAKNTVYLQMNSLKPEDTAVYYCAAGTHYLIVRYGLYDYWGQGTQVYVSS” the “polyreactivity (PSR sort gate)” value was “low polyreactivity”.
For “QVQLVESGGGLVQAGGSLRLSCAASGRTFWRYAMGWDRQAPGKERELVAGITNSGGNTYYADSVKGRFTISRDNAKNTVYLQMNSLKPEDTAVYYCAARSGRFKYSSWSRGPTYDYWGQGTQVTVSS”, the “polyreactivity (PSR sort gate)” value was “low polyreactivity”.
With “QVQLVESGGGLVQAGGSLRLSCAASGYTFYYNAMGWYIQAPGKERELVARISRSGGSTYADSVKGRFTISRDNAKNTVYLQMNSLKPEDTAVYYCNADAYGTPEFTSYAVRYDYWGQGTQVTVSS” the “polyreactivity (PSR sort gate)” value was “low polyreactivity”.
With “QVHLVESGGGLVQARGSLRLSCAASGITFRYYTMGLYRQAPVKERELVAVISWSGGSTYYADSVKGRFTISRDNAKNTVYFQMNSLKPEDTAVYYCAAVRRISRYDYWGQGTQVTVSS” the “polyreactivity (PSR sort gate)” value was “high polyreactivity”.
In the case of “QLQLVESGGGLFQAGGRLRLSFAATGSTFGYYARGWYRQAPGKERELVAAISGSGGSTYYADSVKGRFTISRDNAKNTVYLQMNSLKPEDTAVYYCAATFHRLPKWGSPYYYWGQGTQVTVSS”, the “polyreactivity (PSR sort gate)” value is reported as “high polyreactivity”.
With “QVQLVESGGGLVQAGGSLRLRCAASGRTLYRYAMGWYRQAPGKEREFVAAISSSGGSTYYADSVKGSFTISRDNAKNTVYLQMNSLKPEDTAVYYCAARYGSSYAWSNYWGQGTQVTVSS” the “polyreactivity (PSR sort gate)” value was “high polyreactivity”.
For “QVQLVESGGGLVQAAGSLRLICAASGRIFDVYAMGWYRPAPGKERELVAAITWSGTSTYYADSVKGRFTISRDNAKNTVYLQMNSLKPEDTAVYYCAAEVAYTDTEYFWYYYWGQGTQVTVSS”, the “polyreactivity (PSR sort gate)” value was “high polyreactivity”.
With “QVQLVESGGGLVQAGGSLRLSCGASGYIFGYYAMGWYRQAPRKERDLVAAISSSGGSTYYADSVKGRFTISRDHAKNTVYLQMNSLKPEDTAVYYCAAYRWGTHDRLDYWGQGTQVTVSS” the “polyreactivity (PSR sort gate)” value was “high polyreactivity”.
For “QVQLVESGGGLVQAGGSLRLSCAASGGIFQPNAMGWYRQAPGKERELVASISSDGSTNYADSVKGRFTISRDNAKNTVYLQMTSLKPEDTAVYYCAAAVKRGYAQSFISDGYGYWGQGTQVTVSS”, the “polyreactivity (PSR sort gate)” value was “low polyreactivity”.
For “QVQLVESGGGLVQAGGSLRLSCAASGRIFSTYVMGWYRQAPGKERELVAAIRNRGGSTYYADSVKGRFTISRDNAKNTVYLQMNSLKPEDTAVFYCAAEYSYRYRVSMDYWGQGTQVTVSS”, the “polyreactivity (PSR sort gate)” value was “high polyreactivity”.
In the case of “QVQLGESGGGLVLAGGSLRLSCAASGYDMGWYRHAPGKESELVAAISRGGSTSYADSVKGRFTISRDNAKNTVYLQMNSLKPEDTAVYYCAARYGSYRVGYDYWGQGTQVTVSS”, the “polyreactivity (PSR sort gate)” value is reported as “low polyreactivity”.
With “QVQLVESGGGLVQAGGSLRLSCAASGFIFGSYTMGWYRQAPGKERELVAAISSSVGRTYYADSVKGRFTISRDNAKNTVYLQMNSLKPEDTAVYYCAARRHGRVDYSQGSRESYYWGQGTQVTVSS” the “polyreactivity (PSR sort gate)” value was “high polyreactivity”.
With “QVQLVESGGGLVQSGGSLRLSCAASGLTFKENVMGWYRQAPGKERELVAAISTGASTYYADSVKGRFTISRDNAKNTVYLQMNSLKPEDTAVYYCAKRVTRWYGYWGQGTQVTVSS” the “polyreactivity (PSR sort gate)” value was “high polyreactivity”.
With “QVQLVESGGGLVQAGGSLRLSCAASGSIFYVYAMGWYRQAPGKERELVAAITARVTSTYYADSVKGRFTISRDNAKNTVYLQMNSLKPEDTAVYSCAARTSYKTGYRKYDYWGQATQVTVSS” the “polyreactivity (PSR sort gate)” value was “low polyreactivity”.
For “QVQLVESGGGLVQAGGSLRLSCAASGRISGLYAMGWSRQAPGKEWELVADSTYYADSVKGRFTISRDNAKNTVYLQMNSLKEEDTAVYYCAAVGGGTSTYSGDYWGQGTQVTVSS”, the “polyreactivity (PSR sort gate)” value was “high polyreactivity”.
In the case of “QVQLVESGGGLVQAGGSLRLSCAASGFTFRFYVMVWYRLAPGKERELVAAITASGGTTYYADSVKGRFTISRDNAKNSVYLQMNSLKPEDTAVYYCNALYYYLYGYDYWGQGTQVTVSS”, the “polyreactivity (PSR sort gate)” value is reported as “high polyreactivity”.
For “QVQLVESGGGLVQAGGSLRLSCAASGSTFRVYGMGWSRQAPGKERELVAVIRWRGGRTSYADSVKGRFTISRDYAKNTVYLQLNSLKPEDTAVYYCARQRSYGRSSYSYGYDYWGQGTQVTVSS”, the “polyreactivity (PSR sort gate)” value was “high polyreactivity”.
In the case of “QVQLVESGGGLVQAGGSLRLTCAASGGISLYYVMGWYRQAPGKERELVADISGDDSTNYADSVKGRFTISRDNAKNTVYLQMNSLKPEDTAVYYCAAVPGLFYLPYDYWGQGTQVTVSS”, the “polyreactivity (PSR sort gate)” value is reported as “low polyreactivity”.
With “QVQLVESGGGLVQAGGSLRLSCAASGSTFQVYAMGWYRQAPGKERELVAAIRYRDGNTYYADSVKGRFTISRDNAKNTVYLQMNSLKPEETAVYYCNARLYMPSGYRRSNGYESDYWGQGTQVTVSS” the “polyreactivity (PSR sort gate)” value was “high polyreactivity”.
For “QVQLVESGGGLVQAGGSLRLSCAASGFIFGINAMGWYRQAPGKDRELVATITSGGGTNYADSVKGRFTISRDNAKNTVYLQMNSLKPEETAVYYCAAEEDYISFYVSMDYWGQGTQVTVSS”, the “polyreactivity (PSR sort gate)” value was “low polyreactivity”.
With “QVQLVESGGGLVQAGGSLRLSCAASGFIFAGNAMGWYRQAPGKEREWVAAISRRGVRTYYADSVKGRFTISRDNAKNTVYLQMNSLKPEDTAVYYCAADRPASLISSDYWGQGTQVTVSS” the “polyreactivity (PSR sort gate)” value was “high polyreactivity”.
With “QVQLVESGGGLVQAGGSLRLSCAASGMIFKYYVMGWYRKAPGKERELVDDIRCSGGITSYADSVKGRFTISRDNAKNTVYLQMNSLKPEDTAVYYCAVAHSRLRTAYTFSVQRYDYWGQGTQVTVSS” the “polyreactivity (PSR sort gate)” value was “low polyreactivity”.
In the case of “QVQLVESGGGLVQAGGSLRLSCAASGSTLYSNAMGWYRQAPGKERELVATIDWSGGRTYYADSVKGRFTISRDNAKNTVYLQMNSLKPEDTAVYYCAARQSRDFRYRGFYYWGQGTQVTVSS”, the “polyreactivity (PSR sort gate)” value is reported as “high polyreactivity”.
In the case of “QFQLVESGGGLVQAGGSLRLSCAASGSTFTNYAMGWYRQAPGKEREFVAAITFRGGRTYYADSVKGRFTISRHNAKNTVYLQLNSLKPEDTAVYYCNKRTSPKRFDYWGQGTQVTVSS”, the “polyreactivity (PSR sort gate)” value is reported as “high polyreactivity”.
For “QVQLVESGGGLVQAGGSLRLSCAASGITFTGYAMGWYRQAPGKERELVAAITSGGGRTYYADSVKGRFTISRDNAKNTVYLQMNSLKPEDTAVYYCATRYVTIVGYDYWGQGTQVTVSS”, the “polyreactivity (PSR sort gate)” value was “high polyreactivity”.
In the case of “QVQLVESGGGLVQAGGSLRLSCAASGSTFTINVMGWYRQAPGKERELVAAINGGGRTNYADSVKGRFTFSRDNAKNTVYLQMNSLKPEDTAVYYCAADGLSHVRQMDYWGQGTQVTVSS”, the “polyreactivity (PSR sort gate)” value is reported as “low polyreactivity”.
In the case of “QVQLVESGGGLVQAGGSLLLICAASGSTFPYNAMGWYRQAPGKQRELVASITSRGGSTYYADSVKGRFTISRDNAKNTVYLQMNSLKPQDTAVYYCATPGDTYGWTRRRYYYWGQGTQVTVSS”, the “polyreactivity (PSR sort gate)” value is reported as “high polyreactivity”.
For “QVQLVESGGGLVQAGGSLRLSCAPSRFIFFFYAMGWYRQAPGKERELVAAISDGVSTYYADSVKGRFTISRDNAKNTVYLQKNSLKPDDTAVYYCAVSRGDDPEFDYWGKGTQVTVSS”, the “polyreactivity (PSR sort gate)” value was “low polyreactivity”.
For “QVQLVESGGGLVQAGGSLRLSCAASGFIFAYNAMGWYRQAPGKERELVAAISWSGGSTYYADSVKGRFTISRDNAKNTVYLQMNSLKPEDTAVYYCNAFSYYGARYDYWGLGTQVTVSS”, the “polyreactivity (PSR sort gate)” value was “high polyreactivity”.
In the case of “QVQLVESGGGLVQAGGSLRLSCAASGNIFFRNAMGWYRQAPGKERELVAAISWRGTSTYYADSVKGRFTISRDNAKNTVYLQMNSLKPEDTAVYYCAARGLWPYDYWGQGTQVTVSS”, the “polyreactivity (PSR sort gate)” value is reported as “low polyreactivity”.
For “PVQLVESRGRLVQAGGSLRLSCAASGSIFGYNAMGWYRQAPGKERELVAAISYSGASTYYSDSVKGRFTISRDNAKNTVYLQLNSLKPEDTAVYYCAAGWKRFSGRNHYYWGLGTQVTVSS”, the “polyreactivity (PSR sort gate)” value was “high polyreactivity”.
In the case of “QVQLVESGGGLVQAGGSLRLSCAASGSIFRVYAMGRYRQAPGKEREFVAAISYSTGSTYADSVKGRFTISRDNAKNTVYLQMNSLKPEDTAVYYCNARLRYGSRDEYDYWGQGTQVTVSS”, the “polyreactivity (PSR sort gate)” value is reported as “low polyreactivity”.
For “QVQLQESGGGLAQAGGSLRLSCAASGNIFDADIMGWYRKAPGKERELVGSITDGGSTNYVDSVKGRFTISRDNAKNTVHLQMNSLKPEDTAVYYCAAIAYPEIPTYFDYDSDCFNWGHGTQVTVSS”, the “polyreactivity (PSR sort gate)” value was “high polyreactivity”.
With “QVQLVESGGGLVQAGGSLRLSCTASGIIFGTYAMGWYRQAPGKERELVAAISSSGVSTYYADSVKGRFTISRDNAKYTDYLQMNSLKPEDTAVYYCAAPLHYGYYYCGQGTQVTVSS” the “polyreactivity (PSR sort gate)” value was “high polyreactivity”.
With “QVQLVESGGGLVQAGGSLRLSCAASGSIFSINTMGWYRQAPRTERELVATITWSVGSTNYADSVKGRFTISRDNAKNSVYLQMNSLKPVDTAVYYCNAESFYDYNYWGEGTQVTVSS” the “polyreactivity (PSR sort gate)” value was “low polyreactivity”.
For “QVLLVESGGGLVQAGGSLRLSCAPSGRTVDSYAMGWYRQAPGKETELVAAIDWGGGTTYYADSVKGRFRISRDNAKNSVYLQMNSLKPEDTAVYYCAAGDVWIAPYDSWGQGTQVTVSS”, the “polyreactivity (PSR sort gate)” value was “low polyreactivity”.
In the case of “QVQIVESGGGLVQAGGSLRLSCAASGRILVPYTMGWYRQAPGKERELVAAITIGGRTTYADSVKGRFTISRDNAKNTVYLQMNSLKPEDTAVYYCAKRDWRYEWYGYDYWGQGTQVTVSS”, the “polyreactivity (PSR sort gate)” value is reported as “low polyreactivity”.
With “QVQLVESGGGLVQAGGSLRLSCAASGSIFVEYAMGWYRQAPGKERELVSAIRWRGGSTNYADSVKGRFTISRDTAKNTVYLQMNSLNREDTAVYYCNARHPASGDLYRMDYWGQGTQVTVSS” the “polyreactivity (PSR sort gate)” value was “low polyreactivity”.
